Experimental data reported in the nanobody polyreactivity screen of Harvey et al. (2022).

test: yeast display, Sf9 membrane polyspecificity reagent, FACS + sequencing; frameworks hold sequencing errors
Summary of the method: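 Galactose-induced (36–48 hours) yeast carrying a synthetic nanobody display library were exposed to 10% biotinylated, detergent-solubilized Sf9 membrane reagent at 4 °C for 1 hour. FACS followed streptavidin microbead enrichment, using low and high (top ~1%) gates for expression (anti-HA) and reagent binding (streptavidin). Colony PCR, MiSeq 2 × 250 sequencing and CDR-length filtering followed. Labels for polyreactivity reflect the gate of origin.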

Sequence	polyreactivity (PSR sort gate)
QVQLVESGGGLVQAGGSLRLSCAASGSTFGRYAMGWYRPAPGKGRELDGAISRRGGSTYYADSVKGRFTISRDYAMKTVYFQMHSLKPEDTAVYDCATGYPIELGREFDYWGQGIQVTVSS	high polyreactivity
QVQLVESGGGLVQAGGSLRLSCAASGSTFGRYVMGWYRPAPGKERELVAAISKNAGSTYYADSVKGRFTISRDNAKNTVYLQMNSLKPEDTAVYYCNAQSFREYGYWGQGTQVTVSS	high polyreactivity
QVQLVESGGGLVQAGGSLRLSCAASGSTFGSNAMGWYRQAPGKEREFVAAITWSGGSTYYADSVKGRFTISRDNAKNTVYLQMNSLKPEDTAVYYCAAESDSYFREYDYWGQGTQVTVSS	low polyreactivity
QVQLVESGGGLVQAGGSLRLSCAASGSTFGSNAMGWYRQAPGKERELVAAISSSGSTYYADSVKGRFTISRDNAKNTVYLQMNSLKPEDTAVYYSAAPGSPYGYWGQGTQVTVSW	high polyreactivity
QVQLVESGGGLVQAGGSLRLSCAASGSTFGSNAMGWYRQAPGKERELVATITRRSGSTYYADSVKGRFTISRDNAKNTVYLQMNSLKPEDTAVYYCARVGFWLQYDYWGQGTQVTVSS	high polyreactivity
QVQLVESGGGLVQAGGSLRLSCAASGSTFGSYAMGWYRQAPGKERELVAAISWNGGRTYYADSVKGRFTISRDNAKNTVYFQRNSLKPEDTAVYYCAKVVKYQSGGGLEYWGQGTQVTVSS	high polyreactivity
QVQLVESGGGLVQAGGSLRLSCAASGSTFGSYTMGWYRQPPGKERELVAAINWSGGNTYYADSVKGRFTISRDNAKNTVYLQMNSLKPEDTAVYYCAAAFYIYGFEGDYWGQGTQVTVSS	low polyreactivity
QVQLVESGGGLVQAGGSLRLSCAASGSTFGSYVMGWYRQAPGKERELVAAIRWSGTSTYYADSVKGRFTISRDNAKNTVYLQLNSLKPEDTAVYYCNATPNYNRGDHTPMDYWGQGTQVTVSS	low polyreactivity
QVQLVESGGGLVQAGGSLRLSCAASGSTFGTNAMGWYRQAPGKEREFVASIRKSGGSTYYADSVKGRFTISRDNSKNTVYLQMNSLKPEDTAVYYCAAVYRRYLGGGYDYWGQGTQVTVSS	high polyreactivity
QVQLVESGGGLVQAGGSLRLSCAASGSTFGTNAMGWYRQAPGKEREFVASISVSGGSTYYADSVKGRFTISRDNAKNTVYLQMNSLKPEDTAVYYCNRRAYRRYQFGYWGQGTQVTVSS	high polyreactivity
QVQLVESGGGLVQAGGSLRLSCAASGSTFGTNAMGWYRQAPGKERELVAAITYSGGRTYYADSVKGRFTISRDNAKNTVYLQMNSLKPEDTAVYYCAATFGFFYYQYEYWGLGTQVTVSS	low polyreactivity
QVQLVESGGGLVQAGGSLRLSCAASGSTFGTYAMGWYRQAPGKERELVASIDNSTSGTYYADSVKGRFTISRDNAKNTVYLQMNSLKPEDTAVYYCAATPLVDGSSIPREGDYWGQGTQVTVSS	low polyreactivity
QVQLVESGGGLVQAGGSLRLSCAASGSTFGTYAQGCYRQAPVKDRELVAAITYSTGNTYDADSVKGRFTISRDNAKNTVYLQMNSLKPEDTAVYYCALEYVYDYFWMDYWGQGTQVTVSS	high polyreactivity
QVQLVESGGGLVQAGGSLRLSCAASGSTFGTYTMGWYRPAPGKERELVAAISNRGGTYYADSVKGRFTISRDNAKNTVYLQMNSMKPEDTAVYYCAVARRWGYDYWGQGTQVTVSS	high polyreactivity
QVQLVESGGGLVQAGGSLRLSCAASGSTFGVNAMGWSRQAPGKERELVAVITRSGGSTYYADSVKGRFTISRDNAKNTVFLQMNSLIPEDTAVYYCAKSGVVDWGQGTQVTVSS	low polyreactivity
QVQLVESGGGLVQAGGSLRLSCAASGSTFGVNAMGWYRQAPGKERELVAGISSGTSTYYADSVKGRFTISRDNAKNTVYLQMNSLKPEDTAVYYCATRWSYRYGYWGQGTQVTVSS	high polyreactivity
QVQLVESGGGLVQAGGSLRLSCAASGSTFGVNTMGWYRQAPGKERELVAAITKSGGSTYYADSVKGRFTISRDNAKNTVYLQMNSLKPEDTAVYYCNTDYGRYLYYRYGYWGQGTQVTVSS	low polyreactivity
QVQLVESGGGLVQAGGSLRLSCAASGSTFGVNTMGWYRQAPGKERELVAAITSRGGSTYYADSVKGRFTISRDNAKNTVYLQMNSLKPEDTAVYYCAAEASYYRIRRYYWGQGTQVTVSS	high polyreactivity
QVQLVESGGGLVQAGGSLRLSCAASGSTFGVYAMGWYRQAPGKERELVAAINARGTRTRYADSVKGRFTISRDNAKNTVYLQMTSMKPEDTAVYYCAAVWYGYYSIDTDGYWGQGSQVTVSS	high polyreactivity
QVQLVESGGGLVQAGGSLRLSCAASGSTFGVYAMGWYRQAPGKERELVAAISGSGAGTYYADSVKGRFTISRDNAKNTVYLQMNSLKPEDTAVYYCAAETYYSIYDYWGQGTQVTVSS	high polyreactivity
QVQLVESGGGLVQAGGSLRLSCAASGSTFGVYNMGWYRQAPGQESELVAAITKSGGSTYYADSVMGLFTISRDNAKNTVYLQMNSMNPEDTAVYYCNTDYGRYLYYRFGYLGQGTQVTVSS	low polyreactivity
QVQLVESGGGLVQAGGSLRLSCAASGSTFGWNTMGWYRQAPGKERELVAAISWYGDRTYYADSVKGRFTISRDNAKNTVYLQMNSLKPEDTAVYYCARQRYYGYYYWGQGTQVTVSS	high polyreactivity

Sequence	polyreactivity (PSR sort gate)
QVQLVESGGGLVQAGGSLRLSCAASGSTFGWYAMGLYRQAPVKERELVATISSGGSTYYADSVKGRFTISRDNAKNNVYLQMNSLKPEDTAVYYCAADYWTYEYPGYDYWGQGTQVTVSS	low polyreactivity
QVQLVESGGGLVQAGGSLRLSCAASGSTFGYNAMAWYRQAPGKERELVAAISWSGGSTYYADSVKGRFTISRDNAKNTVYLQMNSLKPEDTAVYYCATPYVKWNDYWGQGTQVTVSS	low polyreactivity
QVQLVESGGGLVQAGGSLRLSCAASGSTFGYNAMGWYRQAPGKEREFVAAITRRGGNTYYADSVKGRFTISRDNAKNTVYLQMNSLKPEDTAVYYCAARYLQGRYDYWGQGTQVTVSS	high polyreactivity
QVQLVESGGGLVQAGGSLRLSCAASGSTFGYNAMGWYRQAPGKERELVAAISSSGSSTSYADSVKGRFTISRDNAQNTVYLQMNSLKPEDTAVYYCAARWTRQRYRTSYYSWGQGTEVTVSS	high polyreactivity
QVQLVESGGGLVQAGGSLRLSCAASGSTFGYYAMGWYRQAPGKEREFVAAITSDGSSTYYADSVKGRFTISRDNAKNTVYLQMNSMKREDTAVYYCAADTFTYGGYKFYIFYWGQGTQVTVSS	high polyreactivity
QVQLVESGGGLVQAGGSLRLSCAASGSTFGYYAMGWYRQAPGKERELVAAINVSGGRTYYADSVKGRFTISRDNAKNTVYLQMNSLKPEDTAVYYCAASLYSYRSPYTFYYWGQGTQVTVSS	high polyreactivity
QVQLVESGGGLVQAGGSLRLSCAASGSTFGYYAMGWYRQAPGKERELVAAISGSGTSTYYADSVKGRFTISRDNAKNTVYLQMNSLKPEDTAVYYCATRYRYTGCGYWGQGSQVTVSS	low polyreactivity
QVQLVESGGGLVQAGGSLRLSCAASGSTFGYYAMGWYRQAPGKERELVAAISRSGTRTYYADSVKGRFTISRDNAKYTVYLQMNSLKPEDTAVYYCAVKGPARGYDYWGQGTQVTVSS	high polyreactivity
QVQLVESGGGLVQAGGSLRLSCAASGSTFGYYAMGWYRQAPGKERELVAAISWRGGSTYYADSVKGRFTISRDNAKNTVYLQMNSLKPEDTAVYYCAAAIFITGYGSYGYWGQGTQVTVSS	low polyreactivity
QVQLVESGGGLVQAGGSLRLSCAASGSTFGYYAMGWYRQAPGKERELVAAISYIGGSTYYADSVKGRFTISRDNANNTDYLQMNSQKPEDTAVYYCAAQYVTYAYDYWGQGTQVTVSS	low polyreactivity
QVQLVESGGGLVQAGGSLRLSCAASGSTFGYYAMGWYRQAPGKERELVARISGGTRTNYADSVKGRFTISRDNAKNTVYLQMNSLKPEDTAVYYCNAYYYIPFEGRGYSKMDYWGQGTQVTVSS	high polyreactivity
QVQLVESGGGLVQAGGSLRLSCAASGSTFGYYAMGWYRQAPGKERELVASITSDGSTNYADSVKGRFTISRDNAKNTVYLQMNSLKPEDSSVYYCAAYVWRYWHEYDYWGQGTQVTVSS	low polyreactivity
QVQLVESGGGLVQAGGSLRLSCAASGSTFGYYGMGWYRQAPGKETELVAAISTGGRTNYADSVKGRFTISRDNAKNTVYLQMNSLKPEDTAVYYCAADFLSPAYRPSWYRFDYWGLGTQVTVSS	low polyreactivity
QVQLVESGGGLVQAGGSLRLSCAASGSTFGYYTMGWYRQAPGKERELVAAITWSGGSTYYADSVKGRFTISRDNAKNTVFLQMNSLKPEDTAVYYCAAEDYWTPFGYWGQGTQVTVSS	low polyreactivity
QVQLVESGGGLVQAGGSLRLSCAASGSTFGYYTMGWYRQAPGKERQLVAAISWSGGSTYYADSVKGRFTISRDNAKNTVYLLMNSLKPEDTAVYYCARGSQYRLWRTPHYYWGQGTQVTVSS	high polyreactivity
QVQLVESGGGLVQAGGSLRLSCAASGSTFGYYTMGWYRQEPGKERELVAAITWSGGSTYFEDSVKGRFTISRDNAKNTVYLQMNSLKPEDTAVYYCAADYYWTPFGYWGQGTLVTVSS	low polyreactivity
QVQLVESGGGLVQAGGSLRLSCAASGSTFGYYVMGWSRQAPGKERELVAAISWGGGSTYYADSVKGRFTISRDNAQNTVYLQMNSLNPEDTAVYYCNLRDQWWGYDYWGQGTQVTVSS	low polyreactivity
QVQLVESGGGLVQAGGSLRLSCAASGSTFHGNAMGWYRQAPGKERELVAAISRSGGSTYYADSVKGRFTISRDNAKNTVYLQMNSLKPEDTAVYYCAAETVYKWWYDYYYWGQGTQVTVSS	high polyreactivity
QVQLVESGGGLVQAGGSLRLSCAASGSTFHLYAMGWNRQAPGKERQFVAAIRGRGGNTYADSVKGRFTISRDNAKNTVYLQMNSLKPEDTAVYYCAAPLLRDLRSPYSYNYWGQGSQVTVSS	low polyreactivity
QVQLVESGGGLVQAGGSLRLSCAASGSTFHLYAMGWYRQAPGKEREIVAAIRGRGGNTYADSVKGRFTISRDNAKNTVYLQMNSLKPEDTAVYYCAAPLLRDLRSPYSYNYWGQGTQVTVSS	low polyreactivity
QVQLVESGGGLVQAGGSLRLSCAASGSTFHLYAMGWYRQAPGKERELVASITWSGGRTYYADSVKGRFTISRDYAKNTVYLHMNSLKPEDTAVYYCAAGDVNWSYSLLYTVVLYDSWGQGTQVTVSS	high polyreactivity
